Data from publication PMC10847457 (Cell Discovery, 2024).

B1: PW5-570 (antibody, V domains shown)
VH: QMQLVQSGPEVRKPGTSVKVSCRASVFSFDTSAVQWVRQARGQPLEWIGWIVFGSSNTDYAQKFRDRVTITGDMSTGTAYMELSSLRSEDTAVYYCAAPHCNRTNCHDGFDIWGQGTVVTVSS
VL: EIVLTQSPGTLSLSPGERATLSCRASQSVRSGYLGWYQQKPGQAPRLLIYGAYNRATGIPDRFRGSGSGTDFTLTISRLEPEDFVVYYCQQYDRSPWTFGQGTKVEIK
notes: also called PW5-570 IgG; PW5-570 immunoglobulin G
B2: PW5-5 (antibody, V domains shown)
VH: QVQLVQSGAEVKKPGASVKVSCKTSGYTFTDHYMYWVRQAPGQGLEWMGVINPDAGSVTYAQKFQGRVTMTSDTSTSTVYMELSSLRSEDTAVYYCARDLFFIPAANSFDYWGQGTLVTVSS
VL: EIVLTQSPATLSLSPGERATLSCRASQSVSSYLAWYQQKPGQAPRLLIYDATNRATGIPARFSGSGSGTDFTLTISSLEPEDFAVYYCQHRSNWPRMFTFGQGTKLEIK
notes: also called PW5-5 IgG; IgG PW5-5
B3: PW5-535 (antibody, V domains shown)
VH: EVRLVESGGGLVQPGGSLRLSCAASGFTFRNYDIHWVRQTTGKGLEWVSAVGTSGDTYYLDSVKGRFTISREDAKKSVYLQMNSLRAGDTAMYYCVRGDASPDNIYYYMDVWGTGTRVIVSS
VL: DIQVTQSPSPLSASVGDRVTITCRASQTIGKYLNWYHQIPGKAPKLLISAASTLHSGVPSRFSGRGSGTDFTLTISSLQPEDFGTYYCQQSYSSPPWTFGQGTKVEIK

Target: SARS-CoV-2 S trimer (stabilized soluble S2P) (SARS-CoV-2, ancestral (WT, Wuhan-Hu-1 …, UniProt P0DTC2, stabilised))
Assay: ELISA
Conditions: both partners purified

Binder	binding result
B1	binds
B2	binds
B3	binds
